# Results published in patent US20140243272A1 (ALPHABETA, published 2014).
# T1: RAAAAAAAAA, Ala-substituted version of SP-C 12-21, spot 12 (human)
# T1 peptide: RAAAAAAAAA
# T2: KRAAAAAAAA, Ala-substituted version of SP-C 11-20, spot 9 (human)
# T2 peptide: KRAAAAAAAA
# T3: KRLLLLLLLL, Leu-substituted version of SP-C 11-20, spot 8 (human)
# T3 peptide: KRLLLLLLLL
# T4: RLLLLLLLLL, Leu-substituted version of SP-C 12-21, spot 11 (human)
# T4 peptide: RLLLLLLLLL
# T5: LVVVVIVGAL (positions 22-31 in SP-C^I23V), spots 21 and 23 (human)
# T5 construct: also called spot 21; spot 23
# T5 peptide: LVVVVIVGAL
# T6: ER-luminal part of the human Bri protein (human, UniProt Q9Y287 90-236, limits assumed)
# T6 construct: domain: ER-luminal part
# T6 sequence (looked up): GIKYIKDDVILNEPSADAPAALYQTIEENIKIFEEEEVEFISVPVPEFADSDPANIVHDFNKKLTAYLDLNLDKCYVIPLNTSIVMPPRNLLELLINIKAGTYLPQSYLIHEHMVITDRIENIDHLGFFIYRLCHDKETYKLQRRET
# B1: S-tagged recombinant human CTproSP-C (proSP-C^59-197) (other)
# chain: GSGMKETAAAKFERQHMDSPDLGTDDDDKAMAHMSQKHTEMVLEMSIGAPEAQQRLALSEHLVTTATFSIGSTGLVVYDYQQLLIAYKPAPGTCCYIMKIAPESIPSLEALTRKVHNFQMECSLQAKPAVPTSKLGQAEGRDAGSAPSGGDPAFLGMAVSTLCGEVPLYYI
# notes: SEC and ESI-MS show mainly trimers and oligomers of trimers; also called CTC; C-terminal domain of lung surfactant protein C precursor
# B2: Recombinant human CTproSP-CBrichos (human proSP-C^94-197), S-tagged (other)
# chain: FSIGSTGLVVYDYQQLLIAYKPAPGTCCYIMKIAPESIPSLEALNRKVHNFQMECSLQAKPAVPTSKLGQAEGRDAGSAPSGGDPAFLGMAVNTLCGEVPLYYI
# notes: also called Brichos domain of human CTproSP-C; Brichos region; not shown: S-tag and vector residues from pET-32c left after thrombin cleavage
# B3: Recombinant human CTproSP-C^L188Q, S-tagged (other)
# chain: HMSQKHTEMVLEMSIGAPEAQQRLALSEHLVTTATFSIGSTGLVVYDYQQLLIAYKPAPGTCCYIMKIAPESIPSLEALNRKVHNFQMECSLQAKPAVPTSKLGQAEGRDAGSAPSGGDPAFLGMAVNTQCGEVPLYYI
# notes: also called mutant human CTproSP-C^L188Q; not shown: S-tag left after thrombin cleavage
# B4: cellulose-bound decamer of I (peptide)
# peptide: IIIIIIIIII
# notes: also called stretch of I
# B5: LLLLLLLLLL, poly-leucine 10-mer peptide, spot 17 (peptide)
# peptide: LLLLLLLLLL
# notes: also called decamer of L
# B6: cellulose-bound decamer of F (peptide)
# peptide: FFFFFFFFFF
# notes: also called stretch of F
# B7: cellulose-bound decamer of M (peptide)
# peptide: MMMMMMMMMM
# notes: also called stretch of M
# B8: cellulose-bound decamer of Y (peptide)
# peptide: YYYYYYYYYY
# notes: also called stretch of Y
# B9: AAAAAAAAAA, poly-alanine 10-mer peptide, spot 18 (peptide)
# peptide: AAAAAAAAAA
# notes: also called decamer of A
# B10: cellulose-bound decamer of W (peptide)
# peptide: WWWWWWWWWW
# notes: also called W counterpart
# B11: cellulose-bound decamer of G (peptide)
# peptide: GGGGGGGGGG
# notes: also called G counterpart
# B12: cellulose-bound decamer of P (peptide)
# peptide: PPPPPPPPPP
# notes: also called P counterpart
# Columns and labels:
# [1] = molecular target: T1, RAAAAAAAAA, Ala-substituted version of …; test: peptide SPOT membrane, S-protein-HRP, ECL
# Method: (§1) SPOT membranes (Frank R, J Immunol Meth, 267:13-26, 2002), containing 10-residue fragments derived from SP-C(SP-C^I23V) were purchased from Sigma Genosys (Cambridge, England). […] The membranes were then blocked with 2% BSA in TBS for one hour. After washing with T-TBS 4×1 h, the membranes were incubated with HRP-conjugated S-protein (Novagen, Madison, Wis.) diluted 1:5000 in T-TBS containing 2% BSA. The membranes were then washed again with T-TBS 4×1 h and binding was visualized by ECL according to the manufacturer's instructions.
# [2] = molecular target: B9; test: peptide SPOT membrane, S-protein-HRP, ECL
# Method: as §1
# [3] = molecular target: T2, KRAAAAAAAA, Ala-substituted version of …; test: peptide SPOT membrane, S-protein-HRP, ECL
# Method: as §1
# [4] = molecular target: T3, KRLLLLLLLL, Leu-substituted version of …; test: peptide SPOT membrane, spot 8
# Method: as §1
# [5] = molecular target: T4, RLLLLLLLLL, Leu-substituted version of …; test: peptide SPOT membrane, spot 11
# Method: as §1
# [6] = molecular target: B12; test: cellulose-bound decamer SPOT membrane, S-protein-HRP, ECL
# Method: (§2) After blocking with 2% BSA for one hour and washing with T-TBS 4×1 h, the membranes were incubated with HRP-conjugated S-protein (Novagen, Madison, Wis.) diluted 1:5000.
# [7] = molecular target: B10; test: as above
# Method: as §2
# [8] = molecular target: B11; test: as above
# Method: as §2
# [9] = molecular target: B5; test: cellulose-bound decamer SPOT membrane, 1 µg/ml protein, S-protein-HRP, ECL
# Method: as §2
# [10] = molecular target: B6; test: as above
# Method: as §2
# [11] = molecular target: B7; test: as above
# Method: as §2
# [12] = molecular target: B8; test: as above
# Method: as §2
# [13] = molecular target: B4; test: as above
# Method: as §2
# [14] = molecular target: B5; test: cellulose-bound decamer SPOT membrane
# Method: as §2
# [15] = molecular target: B6; test: cellulose-bound decamer SPOT membrane
# Method: as §2
# [16] = molecular target: B7; test: cellulose-bound decamer SPOT membrane
# Method: as §2
# [17] = molecular target: B8; test: cellulose-bound decamer SPOT membrane
# Method: as §2
# [18] = molecular target: B4; test: cellulose-bound decamer SPOT membrane
# Method: as §2
# [19] = molecular target: T5, LVVVVIVGAL (positions 22-31 in …); test: peptide SPOT membrane, S-protein-HRP, ECL
# Method: as §1
# [20] = molecular target: B12; test: cellulose-bound decamer SPOT membrane, control
# Method: as §2
# [21] = molecular target: B5; test: cellulose-bound decamer SPOT membrane, control
# Method: as §2
# [22] = molecular target: B9; test: cellulose-bound decamer SPOT membrane, control
# Method: as §2
# [23] = molecular target: B6; test: cellulose-bound decamer SPOT membrane, control
# Method: as §2
# [24] = molecular target: B10; test: cellulose-bound decamer SPOT membrane, control
# Method: as §2
# [25] = molecular target: B7; test: cellulose-bound decamer SPOT membrane, control
# Method: as §2
# [26] = molecular target: B11; test: cellulose-bound decamer SPOT membrane, control
# Method: as §2
# [27] = molecular target: B8; test: cellulose-bound decamer SPOT membrane, control
# Method: as §2
# [28] = molecular target: B4; test: cellulose-bound decamer SPOT membrane, control
# Method: as §2
# [29] = molecular target: T6, ER-luminal part of the human Bri protein; test: cellulose-bound decamer SPOT membrane, control
# Method: as §2
binder,measurement,setting,value
B1,binding result,[1],no binding (tested: 1 µg/ml)
same,binding result,[2],no binding (tested: 1 µg/ml)
same,binding result,[3],no binding (tested: 1 µg/ml)
same,binding result,[4],binds
same,binding result,[5],binds
same,binding result,[6],no binding (tested: 1 µg/ml)
same,binding result,[7],no binding (tested: 1 µg/ml)
same,binding result,[8],no binding (tested: 1 µg/ml)
same,binding result,[9],binds
same,binding result,[10],binds
same,binding result,[11],binds
same,binding result,[12],binds
same,binding result,[13],binds
B2,binding result,[14],binds
same,binding result,[15],binds
same,binding result,[16],binds
same,binding result,[17],binds
same,binding result,[18],binds
B3,binding result,[19],no binding (tested: 1 µg/ml)
same,binding result,[20],no binding
same,binding result,[21],no binding
same,binding result,[22],no binding
same,binding result,[23],no binding
same,binding result,[24],no binding
same,binding result,[25],no binding
same,binding result,[26],no binding
same,binding result,[27],no binding
same,binding result,[28],no binding
B4,binding result,[29],no binding
B5,binding result,[29],no binding
B6,binding result,[29],no binding
B7,binding result,[29],no binding
B8,binding result,[29],no binding
B9,binding result,[29],no binding
B10,binding result,[29],no binding
B11,binding result,[29],no binding
B12,binding result,[29],no binding
